Values of other authors as cited in publication PMC9020725.

Columns and labels:
[1] = target: beta-spectrin repeats 10-13 (Homo sapiens) (UniProt P11277)
[2] = target: ankyrin band 3 binding domain (Homo sapiens) (UniProt P16157)
UniProt P16157, sequence (P16157 1-827): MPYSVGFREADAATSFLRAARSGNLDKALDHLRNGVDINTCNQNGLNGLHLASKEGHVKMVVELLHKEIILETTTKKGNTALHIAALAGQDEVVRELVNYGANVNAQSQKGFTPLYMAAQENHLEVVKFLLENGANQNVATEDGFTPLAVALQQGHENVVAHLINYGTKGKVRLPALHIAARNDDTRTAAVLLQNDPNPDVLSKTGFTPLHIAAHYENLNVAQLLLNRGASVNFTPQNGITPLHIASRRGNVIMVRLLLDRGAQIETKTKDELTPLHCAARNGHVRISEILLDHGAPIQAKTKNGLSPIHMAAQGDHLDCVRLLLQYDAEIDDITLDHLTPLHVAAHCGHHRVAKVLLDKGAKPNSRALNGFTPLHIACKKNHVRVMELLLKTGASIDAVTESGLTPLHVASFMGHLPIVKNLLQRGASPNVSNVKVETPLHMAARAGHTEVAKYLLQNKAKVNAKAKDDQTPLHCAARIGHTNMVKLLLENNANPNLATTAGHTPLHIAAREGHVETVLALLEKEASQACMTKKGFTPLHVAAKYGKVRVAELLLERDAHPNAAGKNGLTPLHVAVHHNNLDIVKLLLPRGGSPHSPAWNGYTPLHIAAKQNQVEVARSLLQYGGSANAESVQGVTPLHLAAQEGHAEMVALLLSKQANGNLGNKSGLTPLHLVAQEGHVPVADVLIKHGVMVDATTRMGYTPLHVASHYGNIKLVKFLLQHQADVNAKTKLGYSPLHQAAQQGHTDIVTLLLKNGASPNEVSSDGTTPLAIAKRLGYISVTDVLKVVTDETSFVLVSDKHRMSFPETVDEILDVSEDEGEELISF

UniProt P11277, sequence (P11277 1275-1688): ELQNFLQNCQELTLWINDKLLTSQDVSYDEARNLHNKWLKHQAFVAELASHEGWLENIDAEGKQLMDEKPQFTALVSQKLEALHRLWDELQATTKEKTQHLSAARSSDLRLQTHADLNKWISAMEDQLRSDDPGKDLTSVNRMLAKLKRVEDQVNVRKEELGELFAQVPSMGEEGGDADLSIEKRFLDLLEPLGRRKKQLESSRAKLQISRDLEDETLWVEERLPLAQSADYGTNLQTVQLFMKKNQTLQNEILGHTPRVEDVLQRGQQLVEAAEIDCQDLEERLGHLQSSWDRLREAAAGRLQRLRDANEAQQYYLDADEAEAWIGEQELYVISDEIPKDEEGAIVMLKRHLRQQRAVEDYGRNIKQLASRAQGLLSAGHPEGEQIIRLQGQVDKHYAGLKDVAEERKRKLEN

Substance: KAHRP (from UniProt P09346)
- Kd [1]: 50 µM
- Kd [2]: 1.55 µM
